Publication doi:10.1101/2022.05.12.491617

Assays:
[1] = molecular target: Drosophila melanogaster KCC variant B (Drosophila melanogaster); test: SEC
[2] = molecular target: Hydra vulgaris KCC (Hydra vulgaris); test: SEC-MALLS
[3] = molecular target: Hydra vulgaris KCC (Hydra vulgaris); test: SEC

| stoichiometry N [1] | stoichiometry N [2] | stoichiometry N [3] | Substance |
| --- | --- | --- | --- |
| 2 | – | – | Drosophila melanogaster KCC variant B (natural protein) |
| – | 2 | 2 | Hydra vulgaris KCC (natural protein) |
